Broadly, the stoichiometry N is the number of molecules, sites or subunits per partner or assembly. Broadly, the Kd is the concentration at which binding is half-saturated. A low value points to higher affinity.

Details in all cases: both partners purified
For assay [1], the target named is T1, GABARAPL2 wild type (ITC sample) (human, UniProt P60520 1-117).
T1 construct: GABARAPL2, human ATG8 protein; also called GABARAPL2 WT
Description: ITC; PCM1 LIR peptide 0.4 mM titrated into 0.025 mM LC3 or GABARAP protein in 21 steps; 25 °C; 50 mM Tris-HCl pH 7.4, 100 mM NaCl; one-site binding model. On the technique in general: In ITC the heat of successive injections is recorded.

For assay [2], the target named is LC3B H27Y mutant (ITC sample) (human, UniProt Q9GZQ8 1-120, H27Y). The assay is described as above.
In assay [3] the target is T2, GABARAP Y25H mutant (ITC sample) (human, UniProt O95166 1-117, Y25H).
T2 construct: GABARAP, human ATG8 protein, with Y25H
Described as above.

The target of assay [4] is LC3B wild type (ITC sample) (human, UniProt Q9GZQ8 1-120). The description is as above.
Assay [5] addresses T3, GABARAP wild type (ITC sample) (human, UniProt O95166 1-117).
T3 construct: GABARAP, human ATG8 protein; also called GABARAP-wt; GABARAP WT
The description is as above.

Assay [6] has as its target T4, GABARAP Y25H (ITC sample) (human, UniProt O95166 1-117, Y25 in GABARAP to H).
T4 construct: GABARAP, human, with Y25H, purified protein for ITC; also called mutation of invariant Y25 in GABARAP to H
As to the kind of experiment: ITC; 0.4 mM PCM1 LIR peptide titrated into 0.025 mM LC3 and GABARAP proteins in 21 steps, 25 °C, 50 mM Tris-HCl pH 7.4, 100 mM NaCl, one-site binding model.

In a further assay the target is LC3B (ITC sample) (human, UniProt Q9GZQ8 1-120). The assay is described as above.
For another assay, the target named is LC3B H27Y (ITC sample) (human, UniProt Q9GZQ8 1-120, H27 in LC3B to Y). The description is as above.
The target of the next assay is T5, GABARAPL2 (ITC sample) (human, UniProt P60520 1-117).
T5 construct: GABARAPL2, human, purified protein for ITC
The assay is described as above.

The target of the next assay is T6, GABARAP (ITC sample) (human, UniProt O95166 1-117).
T6 construct: GABARAP, human, purified protein for ITC
The description is as above.

T2 sequence (O95166 whole entry Y25H): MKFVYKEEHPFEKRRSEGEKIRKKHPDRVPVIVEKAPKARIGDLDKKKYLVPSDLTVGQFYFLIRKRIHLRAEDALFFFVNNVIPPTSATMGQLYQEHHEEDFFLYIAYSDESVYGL
T1 sequence (P60520 whole entry): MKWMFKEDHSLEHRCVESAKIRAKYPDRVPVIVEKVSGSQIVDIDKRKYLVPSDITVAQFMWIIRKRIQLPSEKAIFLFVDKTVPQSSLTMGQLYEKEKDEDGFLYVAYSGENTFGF
T3 sequence (O95166 whole entry): as the sequence (O95166 whole entry Y25H) above, with H25Y counted along it
T5 sequence (P60520 whole entry): as the sequence (P60520 whole entry) above
T6 sequence (O95166 whole entry): as the sequence (O95166 whole entry Y25H) above, with H25Y counted along it
T4 sequence (O95166 whole entry Y25H): as the sequence (O95166 whole entry Y25H) above

B1: Human PCM1 LIR-contained peptide (residues 1958-1976) (peptide)
peptide: SDEEDFVKVEDLPLKLTIY
notes: pericentriolar material 1 (PCM1), human, residues 1958-1976; core LIR FVKV; also called PCM1 LIR peptide; PCM LIR peptide; source: synthetic peptide, bought: GenScript Inc
In the case of B1, the Ka was 311000 M⁻¹ in assay [1]; 40200 M⁻¹ in assay [2]; 17900 M⁻¹ in assay [3]; 13200 M⁻¹ in assay [4]; 157000 M⁻¹ in assay [5]. Moreover, the “stoichiometry N” value in assay [1] was determined as 0.98 ± 0.02; in assay [2] it was 1; in assay [3], 1; in assay [4], 1; in assay [5], 0.94 ± 0.04. Further, the Kd is 25 µM in assay [2] and 56 µM in [3].

B2: Human PCM1 LIR-contained peptide (peptide)
peptide: SDEEDFVKVEDLPLKLTIY
notes: PCM1, human, residues 1958-1976 with the core LIR FVKV; also called PCM1 LIR peptide; PCM LIR peptide; source: synthetic peptide, bought: GenScript Inc
On to B2, for which the binding result (in assay [6]; with LC3B H27Y (ITC sample)) was “binds” throughout. In addition, the Kd was found to be 76 µM in the assay with LC3B (ITC sample), 3.2 µM with GABARAPL2 (ITC sample) and 6.4 µM with GABARAP (ITC sample).

The values above are taken from article PMC6744468, “Selective autophagy maintains centrosome integrity and accurate mitosis by turnover of centriolar satellites” (Nature Communications, 2019).
